Experimental data: the supplement of paper PMC9170038

Test system: MS2 coat protein
Assay: apparent KD of MS2 coat protein; designed switch direction (-1 OFF switch, 1 ON switch): -1; higher = weaker reporter binding
How it was run: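 Three titration conditions were used: no input, 200 uM small-molecule ligand, and an oligonucleotide input. In each, SNAP-549-labelled MS2 coat protein was raised from 0.7 or 1.5 nM, doubling, to 3 µM over designed RNA switches transcribed on Illumina chips by stalled E. coli RNA polymerase. Curve fits of normalised cluster fluorescence gave values whose per-design median over clusters is the apparent KD.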

[1] = input ligand: microRNA oligo, concentration not stated
[2] = Eterna round: R95, input ligand: FMN 200 uM
[3] = Eterna round: R95, input ligand: microRNA oligo, concentration not stated
[4] = Eterna round: R95, input ligand: none

Sequence	apparent KD of MS2 coat protein (input ligand: FMN 200 uM)	apparent KD of MS2 coat protein (input ligand: none)	apparent KD of MS2 coat protein [3]	also measured
AUGUGCUGCUAAGGAUAUGUGAACUGUUUCCGAAUAGAAGGUAGCUAUACAUGAGGAUCACCCAUGUACGUGAACCGAGUAAAA [Eternabot solution 20] (Eterna round: R96, puzzle: Exclusion NG 1)	20 nM	24.6 nM		apparent KD of MS2 coat protein [1]: 19 nM
AUUGUAGAUGUGAGGAUAUCGUAGAUUUUUUGAAACGAGAAGGCACAUGAGGAUCACCCAUGUAAGAUGUAGGU [JR_BMOE4_Sub053] (puzzle: Brourd's mod of Exclusion 4)			118 nM	apparent KD of MS2 coat protein [2]: 45.8 nM; apparent KD of MS2 coat protein [4]: 298 nM
AACCUGUCAGGAUAUCAAUUCUGUGCGUGACUACAGGACGCUGAGAAGGGACAUGAGGAUCACCCAUGUUGACU [Eternabot (Original) Solution 33] (Eterna round: R97, puzzle: Exclusion 4)	24.7 nM	26.8 nM		
UAACAUCUGAUUCUUGAGAUACAUGAGGAUCACCCAUGUUCACAGGAUAUUGAUUUUAAGAAAAGCAAGAAGGGUGAAUCAUUU [JR_ExcNG3_Sub042] (Eterna round: R96, puzzle: Exclusion NG 3)	34.1 nM	20.7 nM		apparent KD of MS2 coat protein [1]: 19 nM
AAUUAGUAUGUGAGGAUAUUGAUGAGAUGAUGGUUUAAGAAGGCACAUGAGGAUCACCCAUGUAGGAAAUAACG [JR_BMEx4_Sub005] (Eterna round: R97, puzzle: Brourd's mod of Exclusion 4)	37.8 nM	24.4 nM		
AGGUGUAGAGGAUAUCUCUUCUCUCACAUGAGGAUCACCCAUGUCCUGGUCACCAAGGAGAGAGAAGGCUACACCA [Omei Ex5 D9] (Eterna round: R97, puzzle: Exclusion 5)	56.4 nM	76.4 nM		
UAGGUGUGAGGAUAUGGUAAAGAUAAGAUGAUGAAAGAACUCCAGAAGGCACAUGAGGAUCACCCAUGUAGAUG [JL-ex4-2.16 Jieux mod] (puzzle: Exclusion 4)			33.3 nM	
GUGUACGGAGGAUAUGUAUGGGCAGGCUGACCUGCAGCUUCACAUGAGGAUCACCCAUGUAGAAGGCUGUGCAC [JL-ex2-2.09 Brourd mod] (puzzle: Exclusion 2)			10.7 nM	
CUGUUUGUAGGAUAUACAUGCGGAACCCUCCUCGUGUGAAGACAUGAGGAUCACCCAUGUAGAAGGACGAGGAG [Angeer] (Eterna round: R97, puzzle: Exclusion 2)	16 nM	16.3 nM		
CCUCAACAGGUCAGGAUAUACCCAACGGCGGACGGGUAGAAGGGACAUGAGGAUCACCCAUGUCCAGAGGUGAG [Eternabot (Original) Solution 11] (Eterna round: R97, puzzle: Brourd's mod of Exclusion 4)	45.5 nM	16.9 nM		
GGGCCCGGUGUGAGGAUAUUGGGCCCGAAAGGGCCCGAGAAGGCACAUGAGGAUCACCCAUGUAAGCCGGGCCC [-46.5, -44.5 kcal, A 23%, 5c-0] (Eterna round: R97, puzzle: Brourd's mod of Exclusion 4)	15.8 nM	14.9 nM		
GGAAUACAUGAGGAUCACCCAUGUAAGGAUAUGCUGAUUAAUUAAUUAUAAUUAUGCAGCAGAAGGUACAAAGG [Mat - Mod of my Eli Mod D50] (puzzle: Exclusion 1)			87 nM	
GUUUGACAUGAGGAUCACCCAUGUGAGGAUAUCGUCUGGUACGUGUUGGCUGGCAUCUCGAGAAGGCGCAUAGG [Exclusion 1 V57] (puzzle: Exclusion 1)			49.7 nM	apparent KD of MS2 coat protein [2]: 75.9 nM; apparent KD of MS2 coat protein [4]: 64.9 nM
CAACCUCACGAGGAUAUCAAUGCUAGUUGGCGUUGAGAAGGCGUAACAUGAGGAUCACCCAUGUGGUGGCGUAU [Eternabot (Original) Solution 26] (Eterna round: R97, puzzle: Exclusion 6)	1020 nM	921 nM		
GUUAUCGCAGGAUAUUAGUACUUGUACAUGAGGAUCACCCAUGUUUAUUGGGACUAAGAAUAAGAAGGGCGAUGAA [JR_Ex5_Sub004] (Eterna round: R97, puzzle: Exclusion 5)	21 nM	17.8 nM		
GCCAUGGGAGGAUAUACGUCAUAGGUUACCUCACGCUGGCGACAUGAGGAUCACCCAUGUAGAAGGCUCAGAUG [Eternabot (L2) Solution 12] (Eterna round: R97, puzzle: Exclusion 2)	101 nM	113 nM		
GUGCCGCGAGGAUAUACAGACGGGUCCAUUACGUGUCUCGGACUUGAGGAUCACCCAAGUAGAAGGCGUCUCGG [salish99_ex2_r4_627] (Eterna round: R97, puzzle: Exclusion 2)	26 nM	27.9 nM		
UUUUUAUAUGAAGGAUAUACUUAACAUGAGGAUCACCCAUGUGGUGUUGUGAGUGAGUGAGUUUAGUAGAAGGUCAAUAAUUUU [JMF's solution 9] (Eterna round: R96, puzzle: Exclusion NG 2)	996 nM	286 nM		apparent KD of MS2 coat protein [1]: 180 nM
UCCUAACAUGAGGAUCACCCAUGUGAGGAUAUGAUACUAUGUACUUCGGUACAUAGUAUCAGAAGGCACAUCCU [Ex1-3: 8] (puzzle: Exclusion 1)			17.5 nM	
AUCGUGUUAGGAUAUACACGACGCUGGGUAGCGGGCGGAGGGUAGAAGGGACAUGAGGAUCACCCAUGUUCGGG [Somalaesar] (Eterna round: R97, puzzle: Exclusion 4)	41.2 nM	46.6 nM		
GUGAGCAGACGGAGAUCCUACAUGAGGAUCACCCAUGUCUCACUAGCUUUUUGCUCGUCUUAUCCUCCUCUGUUCUC [Elimod 25 - Jieux - Sensor, turn-off variant 1] (Eterna round: R97, puzzle: Sensor, turn-off variant 1)	176 nM	201 nM		
CCUCUAACCUAGGAUAUAGGUAGACCUAGUCGCCUAGAAGGAGGUACAUGAGGAUCACCCAUGUAUAUUGGGCU [Inmaor] (puzzle: Exclusion 6)			173 nM	
ACAAGCUUUUUGUUCGUCUUAUACACUCCUAAUAGGACAACAUGAGGAUCACCCAUGUAACAAAGACGAACUCAUGU [Sesor Array 9 - Jieux - Sensor v3, turn-off variant 2] (puzzle: Sensor v3, turn-off variant 2)			169 nM	apparent KD of MS2 coat protein [2]: 11.6 nM; apparent KD of MS2 coat protein [4]: 9.63 nM
UAUUAGUAAGGAUAUCCCACGUAGGACUUCGGUCCUACGUGGGAGAAGGUACAUGAGGAUCACCCAUGUCUAUU [Mod of Fisker 13 - Jieux - Exclusion 4] (Eterna round: R97, puzzle: Exclusion 4)	16.6 nM	14.9 nM		
ACUCCCAUCGUGAGGAUAUUGAAGCGGGAAGCCGGCAAGAAGGUACAUGAGGAUCACCCAUGUGUGAACAGGAC [Eternabot (L1) Solution 48] (Eterna round: R97, puzzle: Brourd's mod of Exclusion 4)	14.5 nM	14.9 nM		
CAGUACUGAGGAUAUACAUGAGGAUCACCCAUGUGUUCCAGCUAGGAAACUAGCAAGAGUAGAAGGCAGUACUG [salish99_ex3_r3_066] (puzzle: Exclusion 3)			24.1 nM	
